Where no end group is shown, it is not given here.
Legend:
[1] = target: T1, ALFA-tagged target immobilized for SPR (TST-NEDD8-ALFA or GFP-ALFA) (synthetic construct, not fully specified); assay: SPR; ligand GFP-ALFA
T1 chain: SRLEEELRRRLTE

[2] = target: NbALFAPE; assay: SPR; ligand TST-NEDD8-ALFA

Binder | koff [1] [s⁻¹] | Kd [2] [nM] | koff [2] [s⁻¹]
NbALFA (non-tagged) (VHH) VHH: EVQLQESGGGLVQPGGSLRLSCTASGVTISALNAMAMGWYRQAPGERRVMVAAVSERGNAMYRESVQGRFTVTRDFTNKMVSLQMDNLKPEDTAVYYCHVLEDRVDSFHDYWGQGTQVTVSS | 9.4e-06 |  | 
SRLEEELRRRLTE (other) [ALFA-tagged target immobilized for SPR (TST-NEDD8-ALFA or GFP-ALFA)] |  | 11 | 0.0029

From article PMC6764986 (2019)
